Source: PMC10095481, “Sequence-Dependent Interaction of the Human Papillomavirus E2 Protein with the DNA Elements on Its DNA Replication Origin”

Columns and labels:
[1] = target: T1, HPV-11 E2 (full length) (Human papillomavirus type 11, UniProt P04015 1-367); experiment: EMSA; apparent Kd; EMSA: 10 mM HEPES pH 7.9, 50 mM NaCl, 4 mM MgCl2, 10% glycerol, 5 mM DTT, 0.2 mM EDTA, 0.1 mg/mL BSA, 10 ng/uL poly(dI-dC), 10 min 30 C; conditions: protein: recombinant; tags: N-terminal His (pET28a); chain copies: 2; label: 32P
[2] = target: T1, HPV-11 E2 (full length); experiment: competition; unlabeled competitor vs 32P-BS1; EMSA: 10 mM HEPES pH 7.9, 50 mM NaCl, 4 mM MgCl2, 10% glycerol, 5 mM DTT, 0.2 mM EDTA, 0.1 mg/mL BSA, 10 ng/uL poly(dI-dC), 10 min 30 C; conditions: protein: recombinant; tags: N-terminal His (pET28a); chain copies: 2; label: 32P
[3] = target: T1, HPV-11 E2 (full length); experiment: EMSA; spacer experiment WT (TTTT); EMSA: 10 mM HEPES pH 7.9, 50 mM NaCl, 4 mM MgCl2, 10% glycerol, 5 mM DTT, 0.2 mM EDTA, 0.1 mg/mL BSA, 10 ng/uL poly(dI-dC), 10 min 30 C; conditions: protein: recombinant; tags: N-terminal His (pET28a); chain copies: 2; label: 32P
[4] = target: T1, HPV-11 E2 (full length); experiment: EMSA; affinity similar to BS1+2; C1, C2 and C3; EMSA: 10 mM HEPES pH 7.9, 50 mM NaCl, 4 mM MgCl2, 10% glycerol, 5 mM DTT, 0.2 mM EDTA, 0.1 mg/mL BSA, 10 ng/uL poly(dI-dC), 10 min 30 C; conditions: protein: recombinant; tags: N-terminal His (pET28a); chain copies: 2; label: 32P
[5] = target: T1, HPV-11 E2 (full length); experiment: EMSA; single complex C1; EMSA: 10 mM HEPES pH 7.9, 50 mM NaCl, 4 mM MgCl2, 10% glycerol, 5 mM DTT, 0.2 mM EDTA, 0.1 mg/mL BSA, 10 ng/uL poly(dI-dC), 10 min 30 C; conditions: protein: recombinant; tags: N-terminal His (pET28a); chain copies: 2; label: 32P
[6] = target: T1, HPV-11 E2 (full length); experiment: EMSA; C1, C2 and C3 complexes; EMSA: 10 mM HEPES pH 7.9, 50 mM NaCl, 4 mM MgCl2, 10% glycerol, 5 mM DTT, 0.2 mM EDTA, 0.1 mg/mL BSA, 10 ng/uL poly(dI-dC), 10 min 30 C; conditions: protein: recombinant; tags: N-terminal His (pET28a); chain copies: 2; label: 32P
[7] = target: T1, HPV-11 E2 (full length); experiment: EMSA; EMSA: 10 mM HEPES pH 7.9, 50 mM NaCl, 4 mM MgCl2, 10% glycerol, 5 mM DTT, 0.2 mM EDTA, 0.1 mg/mL BSA, 10 ng/uL poly(dI-dC), 10 min 30 C; conditions: protein: recombinant; tags: N-terminal His (pET28a); chain copies: 2; label: 32P
[8] = target: T1, HPV-11 E2 (full length); experiment: EMSA; 0 C; EMSA: 10 mM HEPES pH 7.9, 50 mM NaCl, 4 mM MgCl2, 10% glycerol, 5 mM DTT, 0.2 mM EDTA, 0.1 mg/mL BSA, 10 ng/uL poly(dI-dC), 10 min 30 C; conditions: protein: recombinant; tags: N-terminal His (pET28a); chain copies: 2; label: 32P
[9] = target: T1, HPV-11 E2 (full length); experiment: EMSA; 10 C; EMSA: 10 mM HEPES pH 7.9, 50 mM NaCl, 4 mM MgCl2, 10% glycerol, 5 mM DTT, 0.2 mM EDTA, 0.1 mg/mL BSA, 10 ng/uL poly(dI-dC), 10 min 30 C; conditions: protein: recombinant; tags: N-terminal His (pET28a); chain copies: 2; label: 32P
[10] = target: T1, HPV-11 E2 (full length); experiment: EMSA; 20 C; EMSA: 10 mM HEPES pH 7.9, 50 mM NaCl, 4 mM MgCl2, 10% glycerol, 5 mM DTT, 0.2 mM EDTA, 0.1 mg/mL BSA, 10 ng/uL poly(dI-dC), 10 min 30 C; conditions: protein: recombinant; tags: N-terminal His (pET28a); chain copies: 2; label: 32P
[11] = target: T1, HPV-11 E2 (full length); experiment: EMSA; 30 C; EMSA: 10 mM HEPES pH 7.9, 50 mM NaCl, 4 mM MgCl2, 10% glycerol, 5 mM DTT, 0.2 mM EDTA, 0.1 mg/mL BSA, 10 ng/uL poly(dI-dC), 10 min 30 C; conditions: protein: recombinant; tags: N-terminal His (pET28a); chain copies: 2; label: 32P
[12] = target: T1, HPV-11 E2 (full length); experiment: EMSA; 35 C; EMSA: 10 mM HEPES pH 7.9, 50 mM NaCl, 4 mM MgCl2, 10% glycerol, 5 mM DTT, 0.2 mM EDTA, 0.1 mg/mL BSA, 10 ng/uL poly(dI-dC), 10 min 30 C; conditions: protein: recombinant; tags: N-terminal His (pET28a); chain copies: 2; label: 32P
[13] = target: T1, HPV-11 E2 (full length); experiment: EMSA; flank experiment WT; EMSA: 10 mM HEPES pH 7.9, 50 mM NaCl, 4 mM MgCl2, 10% glycerol, 5 mM DTT, 0.2 mM EDTA, 0.1 mg/mL BSA, 10 ng/uL poly(dI-dC), 10 min 30 C; conditions: protein: recombinant; tags: N-terminal His (pET28a); chain copies: 2; label: 32P
[14] = target: T1, HPV-11 E2 (full length); experiment: EMSA; no complex at 80 nM E2; EMSA: 10 mM HEPES pH 7.9, 50 mM NaCl, 4 mM MgCl2, 10% glycerol, 5 mM DTT, 0.2 mM EDTA, 0.1 mg/mL BSA, 10 ng/uL poly(dI-dC), 10 min 30 C; conditions: protein: recombinant; tags: N-terminal His (pET28a); chain copies: 2; label: 32P
[15] = target: T2, recombinant full-length HPV type 11 E2 protein (human papillomavirus type 11), P04015; experiment: dynamic light scattering; purified E2 in solution at low (≤0.1 mg/mL) protein concentration; solvent set as 10% glycerol; three separate measurements; monomer to dimer; conditions: remark: other sources report otherwise
T2 chain: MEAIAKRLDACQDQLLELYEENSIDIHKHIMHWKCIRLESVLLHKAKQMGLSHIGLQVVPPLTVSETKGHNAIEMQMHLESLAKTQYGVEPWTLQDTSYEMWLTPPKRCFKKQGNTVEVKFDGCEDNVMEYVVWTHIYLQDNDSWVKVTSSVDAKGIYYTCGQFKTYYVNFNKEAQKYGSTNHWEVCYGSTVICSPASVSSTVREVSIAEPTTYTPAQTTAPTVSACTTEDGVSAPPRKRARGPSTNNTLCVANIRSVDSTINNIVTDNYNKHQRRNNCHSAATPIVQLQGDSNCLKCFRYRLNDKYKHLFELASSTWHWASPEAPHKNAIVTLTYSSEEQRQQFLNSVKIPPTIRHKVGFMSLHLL

B1: BS2 (dsDNA)
DNA 1: GGAGGGACCGAAAACGGTTCAACC
DNA 2: GGTTGAACCGTTTTCGGTCCCTCC
How did the Kd [1] turn out when B1 was run?
Its Kd is 7.8 ± 0.7 nM.

And the Kd [2]?
The Kd was 6 ± 0.6 nM.

B2: BS4 (dsDNA)
DNA 1: CTTGCAACCGTTTTCGGTTGCCCT
DNA 2: AGGGCAACCGAAAACGGTTGCAAG
How did the Kd [1] turn out when B2 was run?
The Kd was 4.8 ± 0.7 nM.

What about the Kd [3] of the same binder?
Its Kd is 4.4 ± 0.4 nM.

And the Kd [2]?
The Kd was 4.6 ± 0.4 nM.

B3: BS1+2+E1BS (124 bp) (dsDNA)
DNA 1: GTAACCCACACCCTACATATTTCCTTCTTATACTTAATAACAATCTTATTTAAAAAAGAGGAGGGACCGAAAACGGTTCAACCGAAAACGGTTATATATAAACCAGCCCAAAAAATTAGCAGA
DNA 2: TCTGCTAATTTTTTGGGCTGGTTTATATATAACCGTTTTCGGTTGAACCGTTTTCGGTCCCTCCTCTTTTTTAAATAAGATTGTTATTAAGTATAAGAAGGAAATATGTAGGGTGTGGGTTAC
Does B3 bind [4]?
Result: binds

B4: BS1 (50 bp) (dsDNA)
DNA 1: GGAGGGATTGAAAACTTTTCAACCGAAAACGGTTATATATAAACCAGCCC
DNA 2: GGGCTGGTTTATATATAACCGTTTTCGGTTGAAAAGTTTTCAATCCCTCC
Which Kd [5] does the source give for B4 here?
Its Kd is 5.3 ± 0.6 nM.

B5: BS1+2 (50 bp) (dsDNA)
DNA 1: GGCGGGACCGAAAACGGTTCAACCGAAAACGGTTATATATAAACCAGCCC
DNA 2: GGGCTGGTTTATATATAACCGTTTTCGGTTGAACCGTTTTCGGTCCCGCC
B5 was tested. Which Kd [6] did it give?
Its Kd is 4.2 ± 0.3 nM.

B6: BS1 3' mutant (dsDNA)
DNA 1: GGTTCAACCGAAAACGGTTACCCA
DNA 2: TGGGTAACCGTTTTCGGTTGAACC
For B6, which Kd [7] is on record?
The Kd was 7.6 ± 0.6 nM.

B7: BS4 with GTTT spacer (dsDNA)
DNA 1: CTTGCAACCGGTTTCGGTTGCCCT
DNA 2: AGGGCAACCGAAACCGGTTGCAAG
How did the Kd [7] turn out when B7 was run?
Its Kd is 6.4 ± 0.6 nM.

B8: BS1 (dsDNA)
DNA 1: GGTTCAACCGAAAACGGTTATATG
DNA 2: CATATAACCGTTTTCGGTTGAACC
B8 was tested. Which Kd [8] did it give?
Its Kd is 7.3 ± 0.7 nM.

What about the Kd [9] of the same binder?
The Kd was 5.5 ± 1.5 nM.

And the Kd [10]?
Its Kd is 6.2 ± 1.4 nM.

What about the Kd [11] of the same binder?
Its Kd is 5.3 ± 0.4 nM.

What about the Kd [12] of the same binder?
The Kd was 5.7 ± 1.1 nM.

And the Kd [1]?
The Kd was 6.2 ± 0.9 nM.

What about the Kd [13] of the same binder?
Its Kd is 6 ± 0.7 nM.

What about the Kd [2] of the same binder?
Its Kd is 6.2 ± 1.4 nM.

B9: BS1 5' mutant (dsDNA)
DNA 1: CCTGCAACCGAAAACGGTTATATG
DNA 2: CATATAACCGTTTTCGGTTGCAGG
With B9 as the binder, how does the Kd [7] read?
The Kd was 6.4 ± 0.6 nM.

B10: Non-specific (dsDNA)
DNA 1: TGGCGGACCCCACCCAGCCCCACGCGCA
DNA 2: TGCGCGTGGGGCTGGGTGGGGTCCGCCA
Does B10 bind [14]?
Result: no binding

B11: BS3 (dsDNA)
DNA 1: CCTGCAACCGGTTTCGGTTACCCA
DNA 2: TGGGTAACCGAAACCGGTTGCAGG
How did the Kd [1] turn out when B11 was run?
The Kd was 10.2 ± 1.7 nM.

B12: BS1 5'+3' mutant (dsDNA)
DNA 1: CCTGCAACCGAAAACGGTTACCCA
DNA 2: TGGGTAACCGTTTTCGGTTGCAGG
How did the Kd [7] turn out when B12 was run?
The Kd was 7.7 ± 1.7 nM.

B13: recombinant full-length HPV type 11 E2 protein, P04015 1-367 (natural protein)
chain: MEAIAKRLDACQDQLLELYEENSIDIHKHIMHWKCIRLESVLLHKAKQMGLSHIGLQVVPPLTVSETKGHNAIEMQMHLESLAKTQYGVEPWTLQDTSYEMWLTPPKRCFKKQGNTVEVKFDGCEDNVMEYVVWTHIYLQDNDSWVKVTSSVDAKGIYYTCGQFKTYYVNFNKEAQKYGSTNHWEVCYGSTVICSPASVSSTVREVSIAEPTTYTPAQTTAPTVSACTTEDGVSAPPRKRARGPSTNNTLCVANIRSVDSTINNIVTDNYNKHQRRNNCHSAATPIVQLQGDSNCLKCFRYRLNDKYKHLFELASSTWHWASPEAPHKNAIVTLTYSSEEQRQQFLNSVKIPPTIRHKVGFMSLHLL
B13 was tested. Which stoichiometry N [15] did it give?
Its stoichiometry N is 2.
